Data set [1] can be described thus: Fibril formation (electron microscopy, light scattering). Type of data set: physicochemical. Conditions: pH adjusted to theoretical pI. How it is done:
Fibril formation was accomplished by taking the peptides up in water. 10×calcium and magnesium free phosphate buffered saline (“PBS”) was added to give a 1×PBS solution (2.7 mM KCl, 1.2 mM KH2PO4, 138 mM NaCl, 8.1 mM Na2HPO4). Fibril formation was obtained by adjusting the pH to the theoretical pI of the β-amyloid peptides. The theoretical pI of β-amyloid peptide 1-42 was 4.9; the theoretical pI of β-amyloid peptide 1-28 was 5.6; the theoretical pI of β-amyloid peptide 1-28 (Dutch) was 6.2. The final concentration of peptide was 1 mg/ml. […] Fibrils were observed immediately or within no more than two days at room temperature. Small aliquots of suspended aggregated peptides were absorbed onto carbon-coated copper grids and stained with 2% (w/v) uranyl acetate. Samples were examined in a JEOL 1200EX electron microscope.
Synthetic Amyloid Fibril Formation—β1-28 (Chiron Mimotopes Peptide Systems) and β1-40 (Bachem Bioscience) peptides were dissolved in water. Aggregation solution conditions were 1×PBS, 1 mg/ml β-peptide and the pH was adjusted to the theoretical pI of the peptides (5.6 for β1-28 and 4.9 for β1-40). Solutions were kept at room temperature. Fibril formation was confirmed by light scattering and transmission electron microscopy.
It had been possible that some of the charged→glutamine peptide variants might not form fibrils. […]

In data set [2] the target is T1, tPA (Homo sapiens, UniProt P00750). Put plainly: Binding of active site 125I-labeled tPA to amyloid fibrils or fibrin. To be noted: for t-PA binding relative to wt β1-28 and fibrin controls: fibrils of Charged→Gln β(1-28) variants; for effect on tPA binding to amyloid fibrils: ε-aminocaproic acid at 0.1 M (100 mM). How it is done:
In this study, D-Tyr-Pro-Arg-chloromethyl ketone (Bachem Bioscience) was radioiodinated by the chloramine-T method and subsequently used to irreversibly bind to the active site of tPA. (Keyt, et al, Anal. Biochem. 206:73-83 (1992)). 1 mCi of I^125 was mixed with YPRck in 1 M Tris-HCL, 0.01% Tween 20 at pH 7.5. To initiate iodination 10 μl of 1 mg/ml Chloramine-T was added. After 1 minute, 20 μl of 1 mg/ml sodium metabisulfite was added to reduce the Chloramine-T and iodide. 15 μl of 1 mg/ml tPA was then added, and the mixture was incubated at room temperature for 1 hour to allow the YPRck to bind to the tPA. Radiolabeled tPA was purified from free iodine and unreacted YPRck using a PD-10 column preequilibrated with PBS and 0.003% Tween 20. The labeled protein was stored at −20° C.
Synthetic Amyloid Fibril Formation—β1-28 (Chiron Mimotopes Peptide Systems) and β1-40 (Bachem Bioscience) peptides were dissolved in water. Aggregation solution conditions were 1×PBS, 1 mg/ml β-peptide and the pH was adjusted to the theoretical pI of the peptides (5.6 for β1-28 and 4.9 for β1-40). Solutions were kept at room temperature.
Binding of Active Site-labeled tPA to Amyloid Fibrils or to Fibrin—tPA binding was determined by a modification of the method of Higgins and Vehar, Biochem. 26:7786-7791 (1987)).
To confirm that the labeled tPA's protein binding surface was not altered by the radioiodination, it was bound to fibrin by substituting fibrinogen for the fibrils. Fibrin clot formation was initiated by adding 0.4 units/ml (final human thrombin. The remainder of the assay proceeded as above.
Ihibition of kringle-dependent labeled tPA Binding to Amyloid Fibrils and Fibrin Using ε-aminocaproic acid to the binding solutions were set up on the same manner as previously noted except that ε-aminocaproic acid at 0.1 M was included in the conditions.
Previous studies of the interaction of human tissue plasminogen activator with the amyloid β peptide employed a functional plasminogen activation assay (Kingston, I. B. et al., Nature Medicine 1:138-142 (1995); Castro, M. J. M., et al., Analyt. Biochem. 226:225-231 (1995)). However, to understand this interaction more fully, a sensitive and quantitative assay for measuring direct amyloid β peptide binding by t-PA and other fibrin(ogen)-binding proteins (e. g., plasmin) was employed in the present invention. For this purposed a specific probe molecule, D-Tyr-Pro-Arg chloromethyl ketone (YPACK), was radioiodinated with ^125I then reacted with t-PA, plasmin, and thrombin to effect covalent active site modification of their respective protease domains (Keyt, B. A. et al., Analyt. Biochem. 206:73-83 (1992)). Binding of ^125I-YPACK-modified t-PA to fibrin and amyloid β peptide fibrils was carried out by a modification of the method of Higgins, D. L. et al. (Fibrinolysis 6:161-166 (1992)). Incubations of t-PA (0.5 nM) with fibrin or fibrils (100 μg/ml) were in 1X phosphate buffered saline, 0.01% Tween-80, 0.5% bovine serum albumin, pH 7.4, for 60 min. at 37° C. In some instances, ε-amino caproic add (ε-ACA) was also present at a concentration of 100 mM.

For data set [3], the target named is T1, tPA. Put plainly: Plasminogen activation by t-PA, initial velocities under steady state conditions (S-2251, Lineweaver-Burk). In kind it is biochemical. More on the design: purchased Genentech, Inc. Activase. Conditions: unaggregated peptides.
The target in data set [4] is tissue plasminogen activator (Homo sapiens, UniProt P00750). Put plainly: Plasminogen activation stimulation assay (H-D-valyl-L-leucyl-L-lysine-p-nitroanilide), Example 3. In kind it is biochemical. To be noted: stimulators at 56 μg/ml. As to the method:
To further investigate this relationship, the ability of amyloid β peptide fibrils to stimulate tissue plasminogen activator was studied. For this purpose, plasminogen activation assays were carried out as described by Bennett, W. F. et al., J. Biol. Chem. 266:5191-5201 (1991)). Plasmin generation was monitored by measuring the absorbance change at 405 nm produced by hydrolysis of the substrate, H-D-valyl-L-leucyl-L-lysine-p-nitroanilide. Stimulators tested were present in the assay at a concentration of 56 μg/ml. The apparent first-order rate constants of plasminogen activation t-PA were measured for various stimulators. Rate constants were determined as described by Castro, M. J. M., et al., Analyt. Biochem. 226:225-231 (1995)) using fresh or aged amyloid β peptide fibrils or control proteins.
The twelve β1-28 peptide analogs were used for plasminogen activation and direct binding assays with the fibrinogen-binding proteins t-PA, plasmin, and thrombin, specifically labeled at their respective protease domain active sites as described above. For five of the peptide variants R5Q, […], D23Q, and K28Q, t-PA binding was reduced relative to its binding to both wt β1-28 and fibrin controls, implying that the t-PA binding “footprint” on the fibrils was rather large. […]

T1 sequence (P00750 36-562): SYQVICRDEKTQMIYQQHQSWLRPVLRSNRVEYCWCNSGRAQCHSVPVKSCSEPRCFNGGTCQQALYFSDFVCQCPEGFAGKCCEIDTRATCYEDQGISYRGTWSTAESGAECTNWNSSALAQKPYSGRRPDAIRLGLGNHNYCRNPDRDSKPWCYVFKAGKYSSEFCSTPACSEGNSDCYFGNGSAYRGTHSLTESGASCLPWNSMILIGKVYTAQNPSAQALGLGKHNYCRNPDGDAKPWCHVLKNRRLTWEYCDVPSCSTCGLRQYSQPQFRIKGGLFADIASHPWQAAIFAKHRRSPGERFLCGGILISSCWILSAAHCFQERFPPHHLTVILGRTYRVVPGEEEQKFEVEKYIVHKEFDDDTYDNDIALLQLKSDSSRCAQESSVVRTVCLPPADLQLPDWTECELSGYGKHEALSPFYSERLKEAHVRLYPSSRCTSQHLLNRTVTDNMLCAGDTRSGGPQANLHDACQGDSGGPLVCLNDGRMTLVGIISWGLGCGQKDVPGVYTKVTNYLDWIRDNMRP
Chain of tissue plasminogen activator (P00750 23-562 limits assumed): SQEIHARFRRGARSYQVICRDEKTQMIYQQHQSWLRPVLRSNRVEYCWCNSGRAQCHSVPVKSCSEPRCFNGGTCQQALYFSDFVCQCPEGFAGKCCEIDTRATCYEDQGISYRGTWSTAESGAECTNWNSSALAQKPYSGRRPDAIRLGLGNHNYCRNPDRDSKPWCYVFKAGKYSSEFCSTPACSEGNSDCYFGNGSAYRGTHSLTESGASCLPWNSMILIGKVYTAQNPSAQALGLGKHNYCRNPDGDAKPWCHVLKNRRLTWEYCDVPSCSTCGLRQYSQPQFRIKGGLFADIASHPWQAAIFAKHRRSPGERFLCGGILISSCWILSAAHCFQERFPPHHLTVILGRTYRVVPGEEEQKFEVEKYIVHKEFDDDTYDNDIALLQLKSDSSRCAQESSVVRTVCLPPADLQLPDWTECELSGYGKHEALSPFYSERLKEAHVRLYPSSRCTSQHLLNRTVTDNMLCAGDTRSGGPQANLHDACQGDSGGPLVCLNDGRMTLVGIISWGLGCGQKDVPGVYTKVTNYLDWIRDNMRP

Turning to “Corticotropin Releasing Factor: control peptide, 41 amino acids”, in data set [1], the fibril formation entry was “did not form fibrils”. On the same count and under the same terms, the result for “Growth Hormone Releasing Factor: control peptide, 29 amino acids” reads “did not form fibrils”. On to “β 1-40 Amyloid Fibrils: synthetic β1-40 amyloid peptide (Bachem Bioscience), aggregated to fibrils”, for which the “Kd of t-PA binding to fibrils” value with tPA [2] (125I-YPACK-modified t-PA) is “sub-nanomolar range”. In addition, the “% tPA Bound” value in the data set with tPA [2] (about 0.5 nM labeled tPA, 0.1 mg/ml fibrils or fibrin, 1 hour) is given as 62%. Also, the “tPA binding to amyloid fibrils (qualitative)” value in the data set with tPA [2] (radiolabeled tPA, tPA:fibrin binding as control) is given as “binds”. Consider DAEFQHDSGYEVHHQKLVFFAEDVGSNK [R5Q], for which the “t-PA binding relative to wt β1-28 and fibrin controls” value with tPA [2] is recorded as “reduced”. Turning to Fibrinogen, in the data set with tPA [3] (Km of t-PA for plasminogen with the stimulator present), the Km amounted to 3.3 µM. Further, the turnover number (kcat) with tPA [3] (kcat of t-PA with the stimulator present) is 0.051 s⁻¹. In the case of `NCCCCCC(=O)O` [ε-aminocaproic acid, reference compound], the “effect on tPA binding to amyloid fibrils” value at tPA [2] is “capable of competing out amyloid binding”; on tPA [2] (listed as ε-amino caproic acid), “partially blocked”. For DAEFRHDSGYEVHHQKLVFFAEDVGSNQ [K28Q], the “t-PA binding relative to wt β1-28 and fibrin controls” value with tPA [2] is on record as “reduced”. For the same compound, in data set [4], the “stimulation of t-PA-mediated plasminogen activation” value is recorded as “profoundly decreased levels of stimulation”. Consider DAEFRHDSGYEVHHQKLVFFAEQVGSNK [D23Q], for which, in the data set with tPA [2], the “t-PA binding relative to wt β1-28 and fibrin controls” value is given as “reduced”.

For DAEFRHDSGYEVHHQQLVFFAEDVGSNK [K16Q], the “stimulation of t-PA-mediated plasminogen activation” value in data set [4] is “enhanced stimulation”.

The record behind these values is US6471960B1, “Methods for the prevention or treatment of alzheimer's disease” (Rutgers, the State University, priority 1994, dated 2002).
